Numbering of substitutions follows the chain as printed. Numbers in names are those of the source. One block for each binder: values may come before it.
Target: human FcRn (probe in the FACS analysis of bacterially displayed Fc variants) (human, UniProt P55899 24-297; P61769 21-119, limits assumed)
Assay: FACS of bacterially displayed Fc variants with human FcRn, pH 6.0

binding result: binds
B1: Fc variant L309G/Q311L/M428L (bacterial display) (other)
chain: DKTHTCPPCPAPELLGGPSVFLFPPKPKDTLMISRTPEVTCVVVDVSHEDPEVKFNWYVDGVEVHNAKTKPREEQYNSTYRVVSVLTVGHLDWLNGKEYKCKVSNKALPAPIEKTISKAKGQPREPQVYTLPPSRDELTKNQVSLTCLVKGFYPSDIAVEWESNGQPENNYKTTPPVLDSDGSFFLYSKLTVDKSRWQQGNVFSCSVLHEALHNHYTQKSLSLSPGK
notes: also called Q311L in M428L and L309G Fc variant

binding result: binds
B2: Fc variant L309G/Q311K/M428L (bacterial display) (other)
chain: B1 chain with L91K
notes: also called Q311K in M428L and L309G Fc variant

binding result: binds
B3: Fc variant L309G/Q311W/M428L (bacterial display) (other)
chain: B1 chain with L91W
notes: also called Q311W in M428L and L309G Fc variant

binding result: binds
B4: Fc variant L309G/Q311Y/M428L (bacterial display) (other)
chain: B1 chain with L91Y
notes: also called Q311Y in M428L and L309G Fc variant

binding result: binds
B5: Fc variant L309G/Q311T/M428L (bacterial display) (other)
chain: B1 chain with L91T
notes: also called Q311T in M428L and L309G Fc variant

binding result: binds
B6: Fc variant L309G/Q311H/M428L (bacterial display) (other)
chain: B1 chain with L91H
notes: also called Q311H in M428L and L309G Fc variant

binding result: binds
B7: Fc variant L309G/Q311A/M428L (bacterial display) (other)
chain: B1 chain with L91A
notes: also called Q311A in M428L and L309G Fc variant

binding result: binds
B8: Fc variant L309G/Q311V/M428L (bacterial display) (other)
chain: B1 chain with L91V
notes: also called Q311V in M428L and L309G Fc variant

binding result: binds
B9: Fc variant L309G/Q311I/M428L (bacterial display) (other)
chain: B1 chain with L91I
notes: also called Q311I in M428L and L309G Fc variant

Source: patent publication US20230072197A1 (KOREA UNIVERSITY RESEARCH AND BUSINESS FOUNDATION, published 2023)
